Bridge positions count the residues as written; N and C are the ends. Ends that are not written are not given here.

The labels stand for the following.
T1: N-terminally His6-tagged AspH_(315–758) (human aspartate/asparagine-β-hydroxylase, TPR and oxygenase domains) (human, UniProt Q12797 315-758)
T1 construct: human aspartate/asparagine-β-hydroxylase (AspH), residues 315-758: TPR domain (aa 330-555), hinge-loop region (aa 556-577) and 2OG oxygenase domain; pET-28a(+) construct; crystallised with Mn(II) in place of Fe(II) and N-oxalylglycine (NOG); also called AspH-TPR-Ox; His6-AspH_(315–758); not shown: His6, N-terminal, kept
T1 sequence (looked up): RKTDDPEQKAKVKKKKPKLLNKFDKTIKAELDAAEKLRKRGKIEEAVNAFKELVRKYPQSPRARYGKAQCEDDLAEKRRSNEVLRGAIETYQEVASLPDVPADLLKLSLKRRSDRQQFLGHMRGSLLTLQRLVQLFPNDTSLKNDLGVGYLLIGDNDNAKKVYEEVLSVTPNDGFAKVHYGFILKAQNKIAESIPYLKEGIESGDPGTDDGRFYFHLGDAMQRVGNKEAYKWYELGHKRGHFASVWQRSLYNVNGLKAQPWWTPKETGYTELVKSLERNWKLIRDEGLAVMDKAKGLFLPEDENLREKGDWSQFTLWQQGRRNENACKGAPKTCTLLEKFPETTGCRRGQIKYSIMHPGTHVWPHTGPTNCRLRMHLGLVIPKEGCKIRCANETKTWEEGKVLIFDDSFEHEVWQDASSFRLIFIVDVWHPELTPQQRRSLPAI

B1: NC_(26mer), truncated 26mer hFX EGF1 substrate (aa 86–111) with the non-canonical disulfide arrangement (Cys1–2, 3–4) (peptide, UniProt P00742 86-111, looked up)
peptide: DGDQCETSPCQNQGKCKDGLGEYTCT
modifications: disulfide 5-10, 16-25
notes: human coagulation factor X, first EGF-like domain, aa 86-111, lacking the Cys5–6 disulfide-forming residues; also called NC_(26mer) peptide; source: synthetic peptide (GL Biochem (Shanghai) Ltd, orthogonal cysteine protection, single disulfide isomer)
B2: hFX EGF1_(39mer), N-terminal EGF-like domain of human coagulation factor X (aa 86–124) (peptide, UniProt P00742 86-124, looked up)
peptide: DGDQCETSPCQNQGKCKDGLGEYTCTCLEGFEGKNCELF
modifications: disulfide 27-36; not fully specified (C-terminus); also: mixture of canonical (Cys1–3, 2–4) and non-canonical (Cys1–2, 3–4) isomers, crystal: Cys101–Cys110
notes: human coagulation factor X, first EGF-like domain, aa 86-124; The peptide batch is a mixture of disulfide isomers; also called NC_(39mer) peptide (the non-canonical disulfide isomer seen in the crystal); 39-residue fragment of hFX EGF1
B3: NC-4Ser_(39mer), hFX EGF1_(39mer) with cysteines 1, 2, 5 and 6 (aa 90, 95, 112 and 121) replaced by serines (peptide, UniProt P00742 86-124, looked up)
peptide: DGDQSETSPSQNQGKCKDGLGEYTCTSLEGFEGKNSELF
modifications: disulfide 16-25
notes: human coagulation factor X, first EGF-like domain, aa 86-124, with Cys90, 95, 112 and 121 substituted for Ser; also called NC-Ser_(39mer); NC-4Ser_(39mer) peptide; source: synthetic peptide (GL Biochem (Shanghai) Ltd, single disulfide isomer)

The assay concerns the target T1, N-terminally His6-tagged AspH_(315–758) …. Kind of assay: crystal structure; N-terminally His6-tagged AspH_(315–758) (18 mg/mL in 50 mM HEPES, pH 7.5) mixed with 1 mM MnCl2, 2 mM N-oxalylglycine and the AspH-substrate; co-crystallised by vapour diffusion at 4 °C in sitting drops. The note with it: both partners purified.
As for B1, the binding result was “binds”.
The same measure for B2: “binds”.
Consider B3, for which the binding result is given as “binds”.

The values are drawn from publication PMC6817910, “Aspartate/asparagine-β-hydroxylase crystal structures reveal an unexpected epidermal growth factor-like domain substrate disulfide pattern” (Nature Communications, 2019).
